Our source for the transfected cells displaying the intracellular filamentous inclusions and inhibition of apoE cleavage enzyme activity (chromogenic assay, 1 mM Ala-Ala-Pro-Phe-p-nitroanilide; 7 µM apoE4) values is patent US20020147999A1.

Assay in all cases: cell-based or functional assay
In assay [1] the target is p-NF-H (phosphorylated neurofilament protein of high molecular weight), mouse, endogenous in Neuro-2a cells (mouse) (UniProt P19246).
Assay [2] concerns the target p-tau (phosphorylated microtubule-associated protein tau), mouse, endogenous in Neuro-2a cells and mouse brain (mouse) (UniProt P10637).
The target of assay [3] is apoE cleavage enzyme (chymotrypsin-like serine protease; in mouse brain lysate or roughly/partially purified).

p-NF-H (phosphorylated neurofilament protein of high molecular weight), mouse, endogenous in Neuro-2a cells (mouse), sequence (P19246 whole entry): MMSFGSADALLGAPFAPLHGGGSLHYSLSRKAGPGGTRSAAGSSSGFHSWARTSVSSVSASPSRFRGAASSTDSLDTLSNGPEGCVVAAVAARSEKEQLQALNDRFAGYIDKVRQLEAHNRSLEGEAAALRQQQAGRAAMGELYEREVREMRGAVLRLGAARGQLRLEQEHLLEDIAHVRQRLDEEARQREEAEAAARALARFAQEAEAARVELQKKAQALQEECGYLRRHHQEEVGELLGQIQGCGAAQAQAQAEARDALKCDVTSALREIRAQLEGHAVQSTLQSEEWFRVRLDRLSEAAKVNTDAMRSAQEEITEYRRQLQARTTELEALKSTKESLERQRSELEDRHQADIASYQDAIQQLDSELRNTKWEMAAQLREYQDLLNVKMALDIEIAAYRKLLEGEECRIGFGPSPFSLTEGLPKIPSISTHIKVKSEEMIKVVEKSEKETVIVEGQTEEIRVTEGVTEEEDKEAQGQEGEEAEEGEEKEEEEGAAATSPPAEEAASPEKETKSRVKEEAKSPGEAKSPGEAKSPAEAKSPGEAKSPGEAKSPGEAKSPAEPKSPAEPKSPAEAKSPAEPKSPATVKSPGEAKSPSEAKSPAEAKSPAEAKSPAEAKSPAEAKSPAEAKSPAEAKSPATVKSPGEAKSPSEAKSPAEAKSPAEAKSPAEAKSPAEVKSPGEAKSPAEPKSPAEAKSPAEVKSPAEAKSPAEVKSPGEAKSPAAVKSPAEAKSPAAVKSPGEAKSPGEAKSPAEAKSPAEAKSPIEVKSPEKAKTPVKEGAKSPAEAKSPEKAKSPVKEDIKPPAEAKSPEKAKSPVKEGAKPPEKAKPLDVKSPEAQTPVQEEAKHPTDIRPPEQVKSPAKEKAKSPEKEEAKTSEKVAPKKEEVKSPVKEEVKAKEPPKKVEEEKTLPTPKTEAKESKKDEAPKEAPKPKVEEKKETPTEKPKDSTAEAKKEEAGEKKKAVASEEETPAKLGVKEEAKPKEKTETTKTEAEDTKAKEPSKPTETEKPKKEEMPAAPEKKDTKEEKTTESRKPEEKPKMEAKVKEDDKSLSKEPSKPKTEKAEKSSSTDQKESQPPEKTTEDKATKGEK
p-tau (phosphorylated microtubule-associated protein tau), mouse, endogenous in Neuro-2a cells and mouse brain (mouse), sequence (P10637 other isoform, or with tags, fused parts or gaps limits assumed): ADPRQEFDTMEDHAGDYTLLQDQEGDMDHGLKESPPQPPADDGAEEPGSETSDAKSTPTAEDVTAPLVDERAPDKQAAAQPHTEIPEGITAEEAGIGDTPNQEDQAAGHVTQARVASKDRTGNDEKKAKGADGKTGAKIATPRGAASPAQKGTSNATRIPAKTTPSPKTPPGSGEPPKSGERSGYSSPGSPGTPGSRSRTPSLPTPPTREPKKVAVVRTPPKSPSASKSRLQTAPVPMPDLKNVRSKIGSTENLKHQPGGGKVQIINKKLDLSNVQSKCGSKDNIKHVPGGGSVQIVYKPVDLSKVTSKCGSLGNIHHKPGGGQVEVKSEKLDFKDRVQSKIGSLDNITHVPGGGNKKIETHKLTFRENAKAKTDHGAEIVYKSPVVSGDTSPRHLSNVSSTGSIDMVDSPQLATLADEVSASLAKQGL

On to “apoE3(Δ272-299), expressed in transfected cells (pFLAG-CMV-3 vector, secretory pathway, N-terminal FLAG) (from UniProt P02649 19-289)”, for which the transfected cells displaying the intracellular filamentous inclusions in assay [1] and in assay [2] was 32% in each case. Take “apoE4(Δ272-299), expressed in transfected cells (pFLAG-CMV-3 vector, secretory pathway, N-terminal FLAG) (from UniProt P02649 19-289)”: the transfected cells displaying the intracellular filamentous inclusions in assay [1] and in assay [2] was 78% throughout. In assay [3], “purified human apoE4 (full-length) (from UniProt P02649 19-317)” returned an inhibition of apoE cleavage enzyme activity (chromogenic assay, 1 mM Ala-Ala-Pro-Phe-p-nitroanilide; 7 µM apoE4) of 89%.
